We go through 41 sequences from the nanobody polyreactivity screen of Harvey et al. (2022).

A short description of the data set: yeast display, Sf9 membrane polyspecificity reagent, FACS + sequencing; frameworks hold sequencing errors. An outline of the steps: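 Galactose induction of a Saccharomyces cerevisiae BJ5465 synthetic nanobody display library ran 36–48 hours. The cells were then stained for 1 hour at 4 °C with 10% biotinylated, detergent-solubilized Sf9 membrane reagent, pulled down on streptavidin microbeads and FACS-sorted into low and high (top ~1%) gates on expression and reagent-binding fluorescence. Labels for polyreactivity follow the gate of origin.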
For the sequence “QVQLVESGGGLVQAGGSLRLSCAASGSIFYPYDMGWYRQAPGKERELVATINWSSGRTNYADSVKGRFTISRDNAKNTVYLQMNSLKPEDTAVYYCNAVTYSRRYAYYYWGQATQVTVSS”, the “polyreactivity (PSR sort gate)” value is given as “high polyreactivity”.
In the case of “QVQLVESGGGLVQAGGSLRLSCAASGSIFYPYGMGWYRQAPGKEREFVAAISWSGGTTYYADSVKGRFTISRDNAKNTVYLQMNSLKKEDTGVYYCAAVSFYGVGGTWYNYWGKGTQVTVSS” it was “high polyreactivity”; in that of “QVQLVESGGGLVQAGGSLRLSCAASGSIFYPYVMGRYRQAPGKEREFVAAITTSGGTTYYADSVKGRFTISLDNAKNTVYLKMNSLKPEDTAVYDCAARGTVPGWAIYDYWGQGTEVTVSS”, “low polyreactivity”.
As for “QVQLVESGGGLVQAGGSLRLSCAASGSIFYPYVMGWYRQAPGKERELVAAITTSVGSTYYADSVKGRFTISRDNAKNTVYLQMNSLKPEDTAVYYCAAKYFGSRRPGRYNYWGQGTQVTVSS”, the “polyreactivity (PSR sort gate)” value is recorded as “high polyreactivity”.
“QVQLVESGGGLVQAGGSLRLSCAASGSIFYQNAMGWYRQAPGKERELVAAITSDGSTYYADSVKGRFTISRDNAKNTVYLQMNSLKPEDTAVYYCAAEYYGHRYDYWGQGTQVTVSS”: the “polyreactivity (PSR sort gate)” value is on record as “low polyreactivity”.
“QVQLVESGGGLVQAGGSLRLSCAASGSIFYRNAMGWYRQAPGKERELDAAIDSGDSTNYADSVKGRFTISRDNAKNTVYLQMNSLKPEDTAVYYCAARVIYYYGSGPYDYWGQGTQVTVSS”: the “polyreactivity (PSR sort gate)” value is recorded as “low polyreactivity”.
With “QVQLVESGGGLVQAGGSLRLSCAASGSIFYRNAMGWYRQAPGKERELVAAISGRGGSTNYADSVKGRFTISRDNAKNTVYLQMNSLKPEDTAVYYCNRYGVSNILVRGGYWGQGTQVTVSS”, the “polyreactivity (PSR sort gate)” value is recorded as “high polyreactivity”.
“QVQLVESGGGLVQAGGSLRLSCAASGSIFYRNAMGWYRQAPGKERELVAAISWSGASTYYADSVKGRFTISRDNAKNTVFLQLNSLKPEDTAVYYCATDDFWNVKFYAYYPEFDYWGQGTQVTVSS”: the “polyreactivity (PSR sort gate)” value is recorded as “low polyreactivity”.
Regarding “QVQLVESGGGLVQAGGSLRLSCAASGSIFYRNAMGWYRQAPGKERELVAGITTRGGSTYYADSVKGRFTISRDNAKNTVYLQMNSLKPEDTAVYYCNKYYYYRDSGYWGQGTQVTVSS”, the “polyreactivity (PSR sort gate)” value is reported as “high polyreactivity”.
The same measure for “QVQLVESGGGLVQAGGSLRLSCAASGSIFYRNAMGWYRQAPGKERELVASISASGGRTYYADSVKGRLTISRDNAKNTVYFQMYSLNREETAFYYCNKVSPVAYWYSWGINFDFWGQGTQVTVSS”: “high polyreactivity”.
In the case of “QVQLVESGGGLVQAGGSLRLSCAASGSIFYRNAMGWYRQAPGKERELVASISSSAGRTYYADSVKGRFTISRDNAKNTVYLQMNSLKPEDTAVYYCAVTSYRQRGAFDYWGQGTQVTVSS” it was “high polyreactivity”; in that of “QVQLVESGGGLVQAGGSLRLSCAASGSIFYRNAMGWYRQAPGKERELVASITSGGRTNYADSVKGRFTISRDNAKNTVYLQMNSLKPEDTAVYYCARGRASYTKSGPTPYTGYGYWGQGTQVTVSS”, “low polyreactivity”.
The same measure for “QVQLVESGGGLVQAGGSLRLSCAASGSIFYRNVMGWYRQAPGKERELVAAISWSGGSTYYADSVKGRFTISRDNAKNTVYLQMNSLKPEDTAVYYCAADIPKTGYPYAFEYWGQGTQVTVSS”: “low polyreactivity”.
As for “QVQLVESGGGLVQAGGSLRLSCAASGSIFYRNVMGWYRQAPGKERELVAAITGSGGITYYADSVKGRFTISRDNAKNTVYLQMNSLKPEDTAVYYCNKTSFLVKLDYWGQGTQVTVSS”, the “polyreactivity (PSR sort gate)” value is on record as “low polyreactivity”.
In the case of “QVQLVESGGGLVQAGGSLRLSCAASGSIFYRYAMGWYRQAPGKERELVAAIRSRTGRTYYADSVKGRFTITRDNAKNTVYLQMNSLKQEDTAVYYCAADKYFSARFDYWGQGTQVTVSS” it was “high polyreactivity”.
The same measure for “QVQLVESGGGLVQAGGSLRLSCAASGSIFYRYAMGWYRQAPGKERELVAAISSNGVSTYYADSVKGRFTISRDNAKNTVYLQMNSLKPEDTAVYCCARDVYASPRLYTSRYNYWGQGTQVTVSS”: “low polyreactivity”.
In the case of “QVQLVESGGGLVQAGGSLRLSCAASGSIFYRYAMGWYRQAPGKERELVAAISSNGVSTYYADSVKGRFTISRDNAKNTVYLQMTSLNPEDTAVYYCARDVYASPRLYTSRYNYWGQGTQVTVSS”, the “polyreactivity (PSR sort gate)” value is listed as “low polyreactivity”.
Regarding “QVQLVESGGGLVQAGGSLRLSCAASGSIFYRYAMGWYRQAPGKERELVSSISSGVSTNYADYVKGRFTISRDNAKNTVYLQINSLKREDTAVYYWAAYYRGWSSSYWFPAYNYWGQGTQVTVSS”, the “polyreactivity (PSR sort gate)” value is “low polyreactivity”.
In the case of “QVQLVESGGGLVQAGGSLRLSCAASGSIFYRYVMGWYRQAPGKERELVAAITSTGSTYYADSVKGRFTISRDNAKNTVYLQMNSLKPEDTAVYYCNTLYARPLRDSYGYWGQGTQVTVSS” it was “high polyreactivity”; in that of “QVQLVESGGGLVQAGGSLRLSCAASGSIFYRYVMGWYRQAPGKERELVAVITGSGGNTYYADSVKGRFTISRDNAKNTVYLQMNSLKPEDTAVYYCAARYYTSQYGRHSRYPSEYWGQGTQVTVSS”, “high polyreactivity”; in that of “QVQLVESGGGLVQAGGSLRLSCAASGSIFYSNAMGWYRQAPGKERELVAAISFTGGTTYYADSVKGRFTISRDNAKNTVYLQMNSLKPEDTAVYYCNKLYHHYYGYWGQGTQVTVSS”, “high polyreactivity”.
On to “QVQLVESGGGLVQAGGSLRLSCAASGSIFYSNAMGWYRQAPGKERELVADISWSDGSTYYADSVKGRFTISRDNAKNNVYLQMNSLKPEDTAVYYCARKAGYSYFRRYDYWGQGTQVTVSS”, for which the “polyreactivity (PSR sort gate)” value is given as “low polyreactivity”.
The same measure for “QVQLVESGGGLVQAGGSLRLSCAASGSIFYSNAMGWYRQAPGKERELVATIRSGGTTYYADSVKGRFTISRDNAKNTVYLQMNSLKPEDTAVYYCANRYGVKYWGQGTQVTVSS”: “high polyreactivity”.
In the case of “QVQLVESGGGLVQAGGSLRLSCAASGSIFYSNMGWYRPAPGKEREFVAAISGSGVRTYYADSVKGRFTISRDNAKKTVYLQMNSLKPEDTAVYYCNAGRRQDNRYNYWGQGTQVTVSS” it was “high polyreactivity”; in that of “QVQLVESGGGLVQAGGSLRLSCAASGSIFYSNMGWYRQAPGKEREFFAAISGSGVRTYYADSVKGRFTISRDNAKNTVYLQMNSLKPEDTAVYYCNAGRRQDFRYNYWGHGTQVTVSS”, “high polyreactivity”.
In the case of “QVQLVESGGGLVQAGGSLRLSCAASGSIFYSNVMGWYRQAPGKESELVAAITRGGGTNYADSVKGRFTISRDNAKNTVYLQMNSLKPEDTAVYYCNRDPQKYRWIPRFDYWGQGTQVTVSS” it was “low polyreactivity”.
Consider “QVQLVESGGGLVQAGGSLRLSCAASGSIFYSYAMGWDRQAPGKERELVAAISRIGGTTYYADSVKGRFTISRDNAKNTVYLQMNSLKPEDTAVYYCAAGPLLPRYSQYGYWGQGTQVTVSS”, for which the “polyreactivity (PSR sort gate)” value is “low polyreactivity”.
In the case of “QVQLVESGGGLVQAGGSLRLSCAASGSIFYSYAMGWYRQAPGKERELVAAISSGGRTKYADSVKGRFTISRDNAKNTVYLQMNSLKPEDTAVYYCAASDRYGGRDYWGQGTQVTVSS” it was “high polyreactivity”; in that of “QVQLVESGGGLVQAGGSLRLSCAASGSIFYSYAMGWYRQAPGKERELVAAISWDASTYYADSVKGRFTISRDNAKNTVYLQMNSLKPEDTAVSYCNADIPYYFVYDAYDYWGQGTQVTVSS”, “low polyreactivity”.
For the sequence “QVQLVESGGGLVQAGGSLRLSCAASGSIFYSYAMGWYRQAPGKERELVAAISYRGGSTYYADSVKGRFTISRDNAKNTVYLQMNSLKPEDTAVYYCAADARQSRYNYWGQGTQVTVSS”, the “polyreactivity (PSR sort gate)” value is on record as “high polyreactivity”.
In the case of “QVQLVESGGGLVQAGGSLRLSCAASGSIFYSYAMGWYRQAPGKERELVADITWYGGRTYYADSVKGRFTISRDNAKNTVYLQMNSLKPEDTAVYYCAADVYLYDYWGQGTQVTISS” it was “high polyreactivity”; in that of “QVQLVESGGGLVQAGGSLRLSCAASGSIFYSYAMGWYRQAPGKERELVASISDGSSTYADSVKGRFTISRDNAKNTVYLQMNSLKPEDTAVYYCNADATDSYPEKDEHDSWGQGTQVTVSS”, “low polyreactivity”; in that of “QVQLVESGGGLVQAGGSLRLSCAASGSIFYSYAMGWYRQAPGKERELVATITRRGGSTYYADSVKGRFTISRDNAKNTVYLQMNSLKPEDTAVYYCAVKPVRYAYRIYDLRFEYWGQGTQVTVSS”, “high polyreactivity”.
“QVQLVESGGGLVQAGGSLRLSCAASGSIFYSYDMGWYRQAPGKERELVAAIDWSGGSTYYADSVKGRFTISRDNAKNTVYLQMNSLKPEDTAVYYCAADDQVEGDYWGQGTQVTVSS”: the “polyreactivity (PSR sort gate)” value is given as “high polyreactivity”.
In the case of “QVQLVESGGGLVQAGGSLRLSCAASGSIFYTNAMGWYRQAPGKERELVAAIRWSGGRTYYADSVKGRFTISRDNAKNTVFLQMNSLKPEDTAVYYCNVVVRYQSAYDYWGQGTQVTVSS” it was “high polyreactivity”.
“QVQLVESGGGLVQAGGSLRLSCAASGSIFYTNAMGWYRQAPGKERELVAAIRYSGVSTYYADSVKGRFTISRDNAKNTVYLQMNSLKPEDSAVYSCAARGHPFKKSYGSWGQGTQVTVSS”: the “polyreactivity (PSR sort gate)” value was “high polyreactivity”.
The same measure for “QVQLVESGGGLVQAGGSLRLSCAASGSIFYTNAMGWYRQAPGKERELVAAITGGGRTNYADSLKGRFTISRDNAKNTVYLQMNSLKPEDNAVYYCAARTGYRYYTGDYWGQGTQVTVSS”: “high polyreactivity”; for “QVQLVESGGGLVQAGGSLRLSCAASGSIFYTNAMGWYRQAPGKEREMVATITSSTGSTNYADSVKGRFTISRDNAKITVYLQMNSLKPEDTAVYYCAKRDGYWVYYQMDYWGQGTQVTVSS”: “low polyreactivity”.
As to “QVQLVESGGGLVQAGGSLRLSCAASGSIFYTYAMGWYRQAPGKERELVAAISRSGGSTYYADSVKGRFTISRDNAKNTVYLQMNSLKPEDTAVYYCAARPPYRVGIVPLGRREYYWGQGTQVTVSS”, the “polyreactivity (PSR sort gate)” value was “high polyreactivity”.
As to “QVQLVESGGGLVQAGGSLRLSCAASGSIFYTYAMGWYRQAPGKERELVARIDYSTGNTYYADSVKGRFTISRDNAKNTVYLQMNSLKPEDTAVYYCAARDWSSFTGAYDYWGQGTQVTVSS”, the “polyreactivity (PSR sort gate)” value is on record as “high polyreactivity”.
Turning to “QVQLVESGGGLVQAGGSLRLSCAASGSIFYTYAMGWYRQAPGKERELVAVISYGGGRTYYADSVKGRFTISRDNAKNTVYLQMNSLKPEDTAVYYCAASYSFYAFSVPYYYWGQGSQVTVSS”, the “polyreactivity (PSR sort gate)” value is recorded as “high polyreactivity”.
